Patent US20150306234

Tested on: T1, BDD FVIII mutein S2186C
T1 sequence: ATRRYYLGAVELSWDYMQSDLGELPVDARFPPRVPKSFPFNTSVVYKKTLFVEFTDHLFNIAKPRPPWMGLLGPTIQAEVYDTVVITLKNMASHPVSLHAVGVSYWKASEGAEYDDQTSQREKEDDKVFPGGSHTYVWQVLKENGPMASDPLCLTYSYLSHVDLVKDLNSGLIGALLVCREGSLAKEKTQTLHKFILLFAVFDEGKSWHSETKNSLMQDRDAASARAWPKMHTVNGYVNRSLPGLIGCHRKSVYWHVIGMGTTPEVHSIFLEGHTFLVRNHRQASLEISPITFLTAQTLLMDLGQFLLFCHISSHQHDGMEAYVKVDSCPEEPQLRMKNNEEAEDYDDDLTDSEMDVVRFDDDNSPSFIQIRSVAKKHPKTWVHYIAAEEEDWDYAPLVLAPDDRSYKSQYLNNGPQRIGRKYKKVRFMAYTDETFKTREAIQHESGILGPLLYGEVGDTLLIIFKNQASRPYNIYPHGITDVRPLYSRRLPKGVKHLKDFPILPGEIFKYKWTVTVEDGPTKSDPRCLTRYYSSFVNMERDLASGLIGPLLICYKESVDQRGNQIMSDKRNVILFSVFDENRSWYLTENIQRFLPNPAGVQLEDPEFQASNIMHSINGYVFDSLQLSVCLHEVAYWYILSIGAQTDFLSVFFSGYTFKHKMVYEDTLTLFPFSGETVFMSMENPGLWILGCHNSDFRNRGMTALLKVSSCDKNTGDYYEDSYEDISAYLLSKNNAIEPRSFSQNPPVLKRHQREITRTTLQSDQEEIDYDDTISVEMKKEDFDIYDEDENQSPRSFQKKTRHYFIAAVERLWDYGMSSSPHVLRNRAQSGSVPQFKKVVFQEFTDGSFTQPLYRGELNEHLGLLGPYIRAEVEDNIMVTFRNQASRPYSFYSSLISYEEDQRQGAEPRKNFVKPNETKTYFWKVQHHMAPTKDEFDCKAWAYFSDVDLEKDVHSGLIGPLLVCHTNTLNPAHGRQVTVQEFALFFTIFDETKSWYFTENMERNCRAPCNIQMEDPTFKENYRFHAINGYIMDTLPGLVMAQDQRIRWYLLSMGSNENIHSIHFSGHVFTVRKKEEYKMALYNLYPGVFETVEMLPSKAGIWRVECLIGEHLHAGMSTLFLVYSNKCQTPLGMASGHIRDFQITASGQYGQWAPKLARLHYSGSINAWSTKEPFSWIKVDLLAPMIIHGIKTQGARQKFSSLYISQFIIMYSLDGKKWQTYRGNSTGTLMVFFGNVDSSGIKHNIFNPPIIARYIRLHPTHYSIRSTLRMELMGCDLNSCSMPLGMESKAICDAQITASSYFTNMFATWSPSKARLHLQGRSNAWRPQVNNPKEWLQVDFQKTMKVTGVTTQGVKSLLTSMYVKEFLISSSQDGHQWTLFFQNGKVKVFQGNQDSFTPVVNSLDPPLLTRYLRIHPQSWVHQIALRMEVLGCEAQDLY

Substance: thrombin (Haematologic Technologies, Essex Junction, Vt.)
- thrombin cleavage, SDS-PAGE with silver staining: Thrombin digestion of the muteins and control produced the expected cleavage fragments.
